Test results reported in article PMC5180085.

Assays:
Ku70;Ku80 [1] = molecular target: T1, Ku70;Ku80 (human;human, UniProt P12956;P13010 1-609;1-732, |); experiment: mwPIFE; mwPIFE, room temp, 30 min: BamHI 10 mM Tris-HCl pH 8, 100 mM KCl, 0.02% Triton X-100, 0.1 mg/ml BSA, 5 mM EDTA/MgCl2/CaCl2; Ku 35 mM Tris-Cl pH 7.9, 5.5% glycerol, 150 mM KCl, 1 mM EDTA, 0.1 mM DTT, 1.5 mM imidazole; XPF/ERCC1 10 mM Tris-Cl pH 8, 10 mM NaCl. FA: 10 mM Tris-HCl pH 8, 10 mM NaCl, 10% glycerol, 1 mM TCEP, 50 nM DNA, 25 C; settings: protein: recombinant;recombinant, tags: ;, copies: 1;1, label: 5' biotin strand 1, blunt
[2] = molecular target: T2, BamHI restriction endonuclease (UniProt P23940 1-213); experiment: competition; Ca2+; mwPIFE, 1-10x excess; mwPIFE, room temp, 30 min: BamHI 10 mM Tris-HCl pH 8, 100 mM KCl, 0.02% Triton X-100, 0.1 mg/ml BSA, 5 mM EDTA/MgCl2/CaCl2; Ku 35 mM Tris-Cl pH 7.9, 5.5% glycerol, 150 mM KCl, 1 mM EDTA, 0.1 mM DTT, 1.5 mM imidazole; XPF/ERCC1 10 mM Tris-Cl pH 8, 10 mM NaCl. FA: 10 mM Tris-HCl pH 8, 10 mM NaCl, 10% glycerol, 1 mM TCEP, 50 nM DNA, 25 C; settings: protein: commercial; chain copies: 2; blunt
T2 sequence: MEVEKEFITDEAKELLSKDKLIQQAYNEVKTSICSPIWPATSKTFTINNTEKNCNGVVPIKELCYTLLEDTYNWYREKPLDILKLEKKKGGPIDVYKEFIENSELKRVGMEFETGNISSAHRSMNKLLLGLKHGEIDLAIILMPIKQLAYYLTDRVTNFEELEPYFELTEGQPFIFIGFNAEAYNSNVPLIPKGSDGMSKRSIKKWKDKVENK

Ku70;Ku80 [3] = molecular target: T1, Ku70;Ku80; experiment: mwPIFE; mwPIFE, room temp, 30 min: BamHI 10 mM Tris-HCl pH 8, 100 mM KCl, 0.02% Triton X-100, 0.1 mg/ml BSA, 5 mM EDTA/MgCl2/CaCl2; Ku 35 mM Tris-Cl pH 7.9, 5.5% glycerol, 150 mM KCl, 1 mM EDTA, 0.1 mM DTT, 1.5 mM imidazole; XPF/ERCC1 10 mM Tris-Cl pH 8, 10 mM NaCl. FA: 10 mM Tris-HCl pH 8, 10 mM NaCl, 10% glycerol, 1 mM TCEP, 50 nM DNA, 25 C; settings: protein: recombinant;recombinant; tags: ;; copies: 1;1; label: 5' biotin strand 1; 5' Cy3 strand 2; blunt
Ku70;Ku80 [4] = molecular target: T1, Ku70;Ku80; experiment: mwPIFE; internal Cy3, lower PIFE than terminal; mwPIFE, room temp, 30 min: BamHI 10 mM Tris-HCl pH 8, 100 mM KCl, 0.02% Triton X-100, 0.1 mg/ml BSA, 5 mM EDTA/MgCl2/CaCl2; Ku 35 mM Tris-Cl pH 7.9, 5.5% glycerol, 150 mM KCl, 1 mM EDTA, 0.1 mM DTT, 1.5 mM imidazole; XPF/ERCC1 10 mM Tris-Cl pH 8, 10 mM NaCl. FA: 10 mM Tris-HCl pH 8, 10 mM NaCl, 10% glycerol, 1 mM TCEP, 50 nM DNA, 25 C; settings: protein: recombinant;recombinant; tags: ;; copies: 1;1; label: 5' biotin-TEG strand 1; 3' biotin-TEG strand 2; iCy3; blunt; one end free
[5] = molecular target: T2, BamHI restriction endonuclease; experiment: mwPIFE; 5 mM Ca2+; mwPIFE, room temp, 30 min: BamHI 10 mM Tris-HCl pH 8, 100 mM KCl, 0.02% Triton X-100, 0.1 mg/ml BSA, 5 mM EDTA/MgCl2/CaCl2; Ku 35 mM Tris-Cl pH 7.9, 5.5% glycerol, 150 mM KCl, 1 mM EDTA, 0.1 mM DTT, 1.5 mM imidazole; XPF/ERCC1 10 mM Tris-Cl pH 8, 10 mM NaCl. FA: 10 mM Tris-HCl pH 8, 10 mM NaCl, 10% glycerol, 1 mM TCEP, 50 nM DNA, 25 C; settings: protein: commercial; chain copies: 2; label: 5' biotin strand 1; 5' Cy3 strand 2; blunt
Ku70;Ku80 [6] = molecular target: T1, Ku70;Ku80; experiment: mwPIFE; internal Cy3, PIFE falls with distance from free end; mwPIFE, room temp, 30 min: BamHI 10 mM Tris-HCl pH 8, 100 mM KCl, 0.02% Triton X-100, 0.1 mg/ml BSA, 5 mM EDTA/MgCl2/CaCl2; Ku 35 mM Tris-Cl pH 7.9, 5.5% glycerol, 150 mM KCl, 1 mM EDTA, 0.1 mM DTT, 1.5 mM imidazole; XPF/ERCC1 10 mM Tris-Cl pH 8, 10 mM NaCl. FA: 10 mM Tris-HCl pH 8, 10 mM NaCl, 10% glycerol, 1 mM TCEP, 50 nM DNA, 25 C; settings: protein: recombinant;recombinant; tags: ;; copies: 1;1; label: 5' biotin-TEG strand 1; 3' biotin-TEG strand 2; iCy3; blunt; one end free
[7] = molecular target: T3, XPF (truncated);ERCC1 (truncated) (human;human, UniProt Q92889;P07992 640-916;93-297, |); experiment: fluorescence anisotropy; mwPIFE, room temp, 30 min: BamHI 10 mM Tris-HCl pH 8, 100 mM KCl, 0.02% Triton X-100, 0.1 mg/ml BSA, 5 mM EDTA/MgCl2/CaCl2; Ku 35 mM Tris-Cl pH 7.9, 5.5% glycerol, 150 mM KCl, 1 mM EDTA, 0.1 mM DTT, 1.5 mM imidazole; XPF/ERCC1 10 mM Tris-Cl pH 8, 10 mM NaCl. FA: 10 mM Tris-HCl pH 8, 10 mM NaCl, 10% glycerol, 1 mM TCEP, 50 nM DNA, 25 C; settings: protein: recombinant;recombinant, tags: none;GST-His6 N-terminal, removed by TEV, copies: 1;1
T3 sequence 1: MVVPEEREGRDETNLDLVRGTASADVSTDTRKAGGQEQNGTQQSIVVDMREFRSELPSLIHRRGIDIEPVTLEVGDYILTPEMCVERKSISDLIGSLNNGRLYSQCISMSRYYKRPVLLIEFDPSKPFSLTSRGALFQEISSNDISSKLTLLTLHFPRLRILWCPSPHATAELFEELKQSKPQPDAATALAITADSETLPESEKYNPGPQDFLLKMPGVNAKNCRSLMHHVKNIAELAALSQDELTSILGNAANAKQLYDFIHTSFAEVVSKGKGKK
T3 sequence 2: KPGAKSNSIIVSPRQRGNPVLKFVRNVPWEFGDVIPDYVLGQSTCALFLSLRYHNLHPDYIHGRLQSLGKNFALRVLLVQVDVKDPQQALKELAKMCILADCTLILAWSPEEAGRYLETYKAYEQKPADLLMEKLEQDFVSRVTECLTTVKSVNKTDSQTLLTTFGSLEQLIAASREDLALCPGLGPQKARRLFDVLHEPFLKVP

T1 sequence (P12956 whole entry, chain 1 of 2): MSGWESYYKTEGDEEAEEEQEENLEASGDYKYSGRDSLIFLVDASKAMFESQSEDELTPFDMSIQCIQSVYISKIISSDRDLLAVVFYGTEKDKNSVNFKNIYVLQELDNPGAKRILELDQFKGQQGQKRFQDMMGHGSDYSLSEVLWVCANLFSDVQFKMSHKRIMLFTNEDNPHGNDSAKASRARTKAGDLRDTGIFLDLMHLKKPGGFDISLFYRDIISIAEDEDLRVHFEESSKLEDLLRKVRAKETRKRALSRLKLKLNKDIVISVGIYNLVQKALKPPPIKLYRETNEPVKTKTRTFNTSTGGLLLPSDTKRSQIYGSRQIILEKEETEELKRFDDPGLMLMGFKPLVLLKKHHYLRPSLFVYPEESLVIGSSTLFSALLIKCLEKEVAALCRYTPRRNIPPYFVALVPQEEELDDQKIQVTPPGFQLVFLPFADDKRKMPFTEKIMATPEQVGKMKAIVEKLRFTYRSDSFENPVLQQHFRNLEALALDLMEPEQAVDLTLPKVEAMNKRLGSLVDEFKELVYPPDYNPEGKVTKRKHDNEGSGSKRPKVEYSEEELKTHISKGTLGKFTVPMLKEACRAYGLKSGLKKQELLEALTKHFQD
T1 sequence (P13010 whole entry, chain 2 of 2): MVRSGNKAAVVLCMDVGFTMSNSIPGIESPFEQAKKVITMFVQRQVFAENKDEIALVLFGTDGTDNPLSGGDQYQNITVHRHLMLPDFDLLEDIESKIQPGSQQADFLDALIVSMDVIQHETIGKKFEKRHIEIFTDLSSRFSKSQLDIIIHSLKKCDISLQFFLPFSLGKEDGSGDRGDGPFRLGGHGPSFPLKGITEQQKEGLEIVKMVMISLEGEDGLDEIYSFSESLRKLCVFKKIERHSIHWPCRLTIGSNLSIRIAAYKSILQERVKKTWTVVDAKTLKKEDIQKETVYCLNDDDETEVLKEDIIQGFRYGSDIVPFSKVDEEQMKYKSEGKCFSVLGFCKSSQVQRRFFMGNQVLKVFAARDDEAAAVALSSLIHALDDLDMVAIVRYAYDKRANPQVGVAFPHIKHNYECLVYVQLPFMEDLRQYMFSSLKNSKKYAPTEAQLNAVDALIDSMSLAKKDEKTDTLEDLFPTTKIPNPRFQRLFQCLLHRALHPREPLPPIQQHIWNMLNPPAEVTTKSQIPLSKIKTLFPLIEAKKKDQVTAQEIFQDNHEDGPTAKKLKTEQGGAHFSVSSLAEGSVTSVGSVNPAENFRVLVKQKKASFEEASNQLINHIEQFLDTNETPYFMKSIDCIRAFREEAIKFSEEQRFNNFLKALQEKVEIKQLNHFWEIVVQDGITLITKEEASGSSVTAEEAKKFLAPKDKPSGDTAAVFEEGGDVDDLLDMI

B1: Btn_11_f/Cy3_11_r (dsDNA)
DNA 1: AGATAGAGCCA
DNA 2: TGGCTCTATCT
Q: How did the binding signal (Ku70;Ku80 [1]) turn out when B1 was run?
A: 7 % PIFE

B2: Btn_14_f/Cy3_14_r (dsDNA)
DNA 1: CCTAGATAGAGCCA
DNA 2: TGGCTCTATCTAGG
Q: B2 was tested. Which binding signal (Ku70;Ku80 [1]) did it give?
A: ~50 % PIFE

B3: scr competitor (no BamHI site) (dsDNA)
DNA 1: CCGTCCAACAGCGAGGCTGATTAAAGAATTCG
DNA 2: CGAATTCTTTAATCAGCCTCGCTGTTGGACGG
Q: Does B3 bind [2]?
A: no binding

B4: Btn_15_f/Cy3_15_r (dsDNA)
DNA 1: ACCTAGATAGAGCCA
DNA 2: TGGCTCTATCTAGGT
Q: What does the source list for B4?
A: binding signal (Ku70;Ku80 [1]; 5' Cy3 strand 2): ~50 % PIFE; Kd (Ku70;Ku80 [3]): 10 ± 5 nM

B5: BtnT_15_Cy3_15 (internal Cy3 15 nt from free end) (dsDNA)
DNA 1: TTGCATCCTTCACAACGACCACCTAGATAG
DNA 2: CTATCTAGGTGGTCGTTGTGAAGGATGCAA
modifications: internal Cy3 after nt 15 of strand 1
Q: Does B5 bind (Ku70;Ku80 [4])?
A: binds

B6: C_f/C_r (no BamHI site) (dsDNA)
DNA 1: CACAACGACCACCTAGATAGAGCCAAGCAGTTTACGTACCGTCATTCCCTTCCACGTCATCGAGCTACCGTCGTC
DNA 2: GACGACGGTAGCTCGATGACGTGGAAGGGAATGACGGTACGTAAACTGCTTGGCTCTATCTAGGTGGTCGTTGTG
Q: Does B6 bind [5]?
A: no binding

B7: Btn_12_f/Cy3_12_r (dsDNA)
DNA 1: TAGATAGAGCCA
DNA 2: TGGCTCTATCTA
Q: With B7 as the binder, how does the binding signal (Ku70;Ku80 [1]) read?
A: 20 % PIFE

B8: Btn_13_f/Cy3_13_r (dsDNA)
DNA 1: CTAGATAGAGCCA
DNA 2: TGGCTCTATCTAG
Q: For B8, which binding signal (Ku70;Ku80 [1]) is on record?
A: ~50 % PIFE

B9: B-GC* competitor (one base changed in BamHI site) (dsDNA)
DNA 1: CACAACGCCTGATCCGGCCTAGAT
DNA 2: ATCTAGGCCGGATCAGGCGTTGTG
Q: Does B9 bind [2]?
A: no binding

B10: BtnT_15_Cy3_60 (internal Cy3 60 nt from free end) (dsDNA)
DNA 1: TTGCATCCTTCACAACGACCACCTAGATAGAGCCAAGCAGTTTACGTACCGTCATTCCCTTCCACGTCATCGAGC
DNA 2: GCTCGATGACGTGGAAGGGAATGACGGTACGTAAACTGCTTGGCTCTATCTAGGTGGTCGTTGTGAAGGATGCAA
modifications: internal Cy3 after nt 15 of strand 1
Q: Does B10 bind (Ku70;Ku80 [6])?
A: binds

Q: Which Kd ([7]; hairpin) does the source give for CAGCGCTCGGTTTTTTTTTTTTTTTTTTTTCCGAGCGCTG (structured_DNA) [HP (stem-loop)] here?
A: 640 ± 100 nM

B11: Btn_25BamHI1_f/Cy3_25BamHI1_r (dsDNA)
DNA 1: CACAACGACCACCTAGATGGATCCA
DNA 2: TGGATCCATCTAGGTGGTCGTTGTG
Q: Does B11 bind [5]?
A: binds

B12: 10ds (dsDNA)
DNA 1: CAGCGCTCGG
DNA 2: CCGAGCGCT
Q: For B12, which Kd ([7]; 5' overhang 1 nt on strand 1 as printed (meant blunt)) is on record?
A: 4750 ± 800 nM

B13: B-GC competitor (substitutions outside site) (dsDNA)
DNA 1: CACAACGCCGGATCCGGCCTAGAT
DNA 2: ATCTAGGCCGGATCCGGCGTTGTG
Q: Does B13 bind [2]?
A: binds

B14: Y (splayed arm) (structured_DNA)
DNA 1: CAGCGCTCGGTTTTTTTTTT
DNA 2: TTTTTTTTTTCCGAGCGCTG
Q: With B14 as the binder, how does the Kd ([7]; fork 1:2, 10 bp duplex with two T10 arms) read?
A: 810 ± 100 nM
